Experimental data as given in paper doi:10.1101/2021.04.26.441533 (bioRxiv, 2021).
Numbering of substitutions follows the chain as printed.

What was measured:
Assay in all cases: single-molecule magnetic tweezers
vinculin T12 mutant = biological target: T1, vinculin T12 mutant (UniProt P18206-2 1-1066, D974A | K975A | R976A | R978A)
T1 sequence (looked up): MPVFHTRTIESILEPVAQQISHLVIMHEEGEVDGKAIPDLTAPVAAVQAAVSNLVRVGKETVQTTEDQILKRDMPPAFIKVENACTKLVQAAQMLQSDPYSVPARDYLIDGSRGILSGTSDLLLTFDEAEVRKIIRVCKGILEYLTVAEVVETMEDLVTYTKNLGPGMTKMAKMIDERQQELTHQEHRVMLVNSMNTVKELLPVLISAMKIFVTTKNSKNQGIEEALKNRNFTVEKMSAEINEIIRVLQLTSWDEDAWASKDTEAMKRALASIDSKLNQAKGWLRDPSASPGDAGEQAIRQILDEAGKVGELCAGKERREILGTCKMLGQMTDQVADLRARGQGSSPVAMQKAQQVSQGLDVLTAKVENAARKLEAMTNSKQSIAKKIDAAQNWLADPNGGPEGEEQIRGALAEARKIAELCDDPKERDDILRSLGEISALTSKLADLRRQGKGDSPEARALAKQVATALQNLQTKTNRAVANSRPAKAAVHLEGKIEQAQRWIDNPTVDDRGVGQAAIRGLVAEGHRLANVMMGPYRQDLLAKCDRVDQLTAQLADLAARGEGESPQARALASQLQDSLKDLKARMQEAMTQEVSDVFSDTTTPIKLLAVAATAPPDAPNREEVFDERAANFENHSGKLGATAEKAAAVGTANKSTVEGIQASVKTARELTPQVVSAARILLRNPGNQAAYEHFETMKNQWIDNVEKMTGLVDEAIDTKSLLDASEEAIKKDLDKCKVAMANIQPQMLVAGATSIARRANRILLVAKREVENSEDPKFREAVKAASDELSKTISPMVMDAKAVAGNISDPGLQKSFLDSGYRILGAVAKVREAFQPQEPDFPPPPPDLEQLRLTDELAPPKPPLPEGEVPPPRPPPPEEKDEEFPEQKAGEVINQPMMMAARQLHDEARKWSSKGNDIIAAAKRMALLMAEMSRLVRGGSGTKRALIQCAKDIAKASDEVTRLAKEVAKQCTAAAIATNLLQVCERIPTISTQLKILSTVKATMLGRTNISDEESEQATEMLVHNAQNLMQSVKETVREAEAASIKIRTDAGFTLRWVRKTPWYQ

vinculin head (D1-D4) = biological target: T2, vinculin head (D1-D4) (UniProt P18206-2 1-835)
T2 sequence (looked up): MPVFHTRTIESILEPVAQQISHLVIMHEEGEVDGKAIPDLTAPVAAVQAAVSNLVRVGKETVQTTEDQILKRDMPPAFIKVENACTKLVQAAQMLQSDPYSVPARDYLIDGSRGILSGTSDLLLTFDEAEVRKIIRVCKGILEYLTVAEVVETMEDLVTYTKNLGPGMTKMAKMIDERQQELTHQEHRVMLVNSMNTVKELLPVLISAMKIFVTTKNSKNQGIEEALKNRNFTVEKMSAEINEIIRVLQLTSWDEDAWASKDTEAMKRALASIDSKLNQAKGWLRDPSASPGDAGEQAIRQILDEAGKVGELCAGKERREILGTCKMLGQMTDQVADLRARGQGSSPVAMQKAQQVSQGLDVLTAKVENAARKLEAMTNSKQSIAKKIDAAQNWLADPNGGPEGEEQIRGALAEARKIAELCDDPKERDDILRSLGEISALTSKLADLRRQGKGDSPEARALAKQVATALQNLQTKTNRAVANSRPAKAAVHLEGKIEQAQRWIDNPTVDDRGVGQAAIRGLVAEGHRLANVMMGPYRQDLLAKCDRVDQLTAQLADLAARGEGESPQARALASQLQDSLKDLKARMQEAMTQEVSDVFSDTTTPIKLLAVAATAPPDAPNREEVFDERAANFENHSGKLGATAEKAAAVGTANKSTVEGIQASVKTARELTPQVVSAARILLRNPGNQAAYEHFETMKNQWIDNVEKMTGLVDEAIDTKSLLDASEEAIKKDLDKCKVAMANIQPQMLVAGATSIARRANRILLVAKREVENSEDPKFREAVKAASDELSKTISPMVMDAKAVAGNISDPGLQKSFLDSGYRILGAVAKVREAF

[1] = biological target: T3, Full-length vinculin (FL-vinculin) (UniProt P18206-2 1-1066)
T3 sequence (looked up): T1 sequence (looked up) with A974D, A975K, A976R, A978R

Kd (vinculin T12 mutant): 1.9 nM
koff (vinculin T12 mutant): 0.021 s⁻¹
kon (vinculin T12 mutant): 1.1e+07 M⁻¹ s⁻¹
Kd (vinculin head (D1-D4)): 0.6 nM
koff (vinculin head (D1-D4)): 0.0022 s⁻¹
kon (vinculin head (D1-D4)): 3.7e+06 M⁻¹ s⁻¹
koff [1]: 0.014 s⁻¹
kon [1]: 1e+06 M⁻¹ s⁻¹
B1: talin R4-R6 domains (stretchable talin R4-R6 fragment) (domain or fragment, UniProt P26039 913-1357, looked up)
chain: LVQRLEHAAKQAAASATQTIAAAQHAASAPKASAGPQPLLVQSCKAVAEQIPLLVQGVRGSQAQPDSPSAQLALIAASQSFLQPGGKMVAAAKASVPTIQDQASAMQLSQCAKNLGTALAELRTAAQKAQEACGPLEMDSALSVVQNLEKDLQEIKAAARDGKLKPLPGETMEKCTQDLGNSTKAVSSAIAKLLGEIAQGNENYAGIAARDVAGGLRSLAQAARGVAALTSDPAVQAIVLDTASDVLDKASSLIEEAKKASGHPGDPESQQRLAQVAKAVTQALNRCVSCLPGQRDVDNALRAVGDASKRLLSDSLPPSTGTFQEAQSRLNEAAAGLNQAATELVQASRGTPQDLARASGRFGQDFSTFLEAGVEMAGQAPSQEDRAQVVSNLKGISMSSSKLLLAAKALSTDPASPNLKSQLAAAARAVTDSINQLITMCTQQA
modifications: N-terminus linked to a superparamagnetic bead through a 572-bp double strand DNA linker
